{
  "source": "paper PMC8322077",
  "about": "“Antibody toolkit reveals N-terminally ubiquitinated substrates of UBE2W” (Nature Communications, 2021)",
  "binders": {"B1": {"name": "UCHL5^WT (enzyme, UniProt Q9Y5K5 1-329, looked up)", "chain": "MTGNAGEWCLMESDPGVFTELIKGFGCRGAQVEEIWSLEPENFEKLKPVHGLIFLFKWQPGEEPAGSVVQDSRLDTIFFAKQVINNACATQAIVSVLLNCTHQDVHLGETLSEFKEFSQSFDAAMKGLALSNSDVIRQVHNSFARQQMFEFDTKTSAKEEDAFHFVSYVPVNGRLYELDGLREGPIDLGACNQDDWISAVRPVIEKRIQKYSEGEIRFNLMAIVSDRKMIYEQKIAELQRQLAEEEPMDTDQGNSMLSAIQSEVAKNQMLIEEEVQKLKRYKIENIRRKHNYLPFIMELLKTLAEHQQLIPLVEKAKEKQNAKKAQETK", "notes": "ubiquitin C-terminal hydrolase L5 (UCHL5), full-length wild type; also called UCH37; source: E. coli BL21-Gold(DE3), purified (Ni-NTA, SEC)"}},
  "target": "T1, biotinylated ubiquitin (UniProt P0CG48 1-76, biotin)",
  "T1 construct": "ubiquitin (monoubiquitin); also called biotin-Ub; monoubiquitin; source: bought: Boston Biochem (Cat# UB-570)",
  "test": "BLI; Octet Red384; biotinylated ubiquitin immobilised on streptavidin biosensors; analyte fourfold dilutions starting at 5 μM; 25 °C; 150 mM NaCl, 20 mM Tris 7.5, 1 mg/mL BSA, 0.01% Tween-20, 1 mM TCEP; association 180 s, dissociation 300 s",
  "settings": "both partners purified",
  "data": [
    {"binder": "B1", "values": [
      {"measurement": "binding result", "result": "binds"}
    ]}
  ]
}
